What was measured:
[1] = target: T1, recombinant human DLL4 (Cat# 1506-D4/CF, R&D Systems) (human, UniProt Q9NR61 27-529); assay: ELISA, DLL4 coated, Fab 100 nM
T1 construct: Bought protein; also called hDLL4; rHuman DLL4

[2] = target: T1, recombinant human DLL4 (Cat# …); assay: ELISA, DLL4 coated, Fab 75 nM
[3] = target: T1, recombinant human DLL4 (Cat# …); assay: ELISA, DLL4 coated, Fab 50 nM
Description: (§1) The plate was blocked by adding 1% BSA in Tris-buffered Saline Tween (TBST) and incubating for 1 hour at room temperature followed by washing 2 times with 150 μl TBST. A Fab antibody was serially diluted in 1% BSA in PBS. A 50 μl aliquot of each serial dilution was added, in triplicate, to each well and the plate was incubated for 1 hour at room temperature followed by washing 2 times with TBST. 50 μl of either goat anti-human kappa HRP conjugated secondary antibody (Cat # A7164-1 mL, Sigma-Aldrich) or goat anti-human lambda HRP conjugated secondary antibody (Cat # L1645-1 ml, Sigma-Aldrich), diluted 1:1000 in 1% BSA in PBS, was added to each well and the plate was incubated for 30 minutes at room temperature followed by washing 3 times with 200 μl TBST. Finally, 50 μl TMB one-component reagent (Cat # TMBW-1000-01, BioFax) was added and allowed to develop for 2 minutes at room temperature. The reaction was immediately halted by the addition of 50 μl 0.5M H₂SO₄ and the absorbance at 450 nm was measured using an ELISA plate reader.

[4] = target: T1, recombinant human DLL4 (Cat# …); assay: ELISA, DLL4 coated, Fab 5 nM
Description: as §1

[5] = target: T1, recombinant human DLL4 (Cat# …); assay: ELISA, DLL4 coated, Fab 1.3 nM
Description: as §1

[6] = target: T1, recombinant human DLL4 (Cat# …); assay: ELISA, DLL4 coated, Fab 2.5 nM
Description: as §1

[7] = target: T1, recombinant human DLL4 (Cat# …); assay: ELISA, DLL4 coated, Fab 0.16 nM
Description: as §1

[8] = target: T1, recombinant human DLL4 (Cat# …); assay: ELISA, DLL4 coated, Fab 20 nM
Description: as §1

[9] = target: T1, recombinant human DLL4 (Cat# …); assay: ELISA, DLL4 coated, Fab 0.63 nM
Description: as §1

[10] = target: T1, recombinant human DLL4 (Cat# …); assay: ELISA, DLL4 coated, Fab 0.31 nM
Description: as §1

[11] = target: T1, recombinant human DLL4 (Cat# …); assay: ELISA, DLL4 coated, Fab 10 nM
Description: as §1

| ELISA absorbance at 450 nm [1] | ELISA absorbance at 450 nm [2] | ELISA absorbance at 450 nm [3] | ELISA absorbance at 450 nm [4] | ELISA absorbance at 450 nm [5] | ELISA absorbance at 450 nm [6] | ELISA absorbance at 450 nm [7] | ELISA absorbance at 450 nm [8] | ELISA absorbance at 450 nm [9] | ELISA absorbance at 450 nm [10] | ELISA absorbance at 450 nm [11] | Binder |
| --- | --- | --- | --- | --- | --- | --- | --- | --- | --- | --- | --- |
| 0.338 A450 | 0.399 A450 | 0.301 A450 | – | – | – | – | – | – | – | – | Fab VH1-46_IGHD6-6*01_IGHJ1*01 S102A/S103P/S104F/H111F G56A & L6_IGKJ1*01 (Fab, V domains shown, Fab made in E. coli: VH on CH1 with His6 and Flag tags (Plasmid A), VL on kappa CL (Plasmid C); also called H: APFF G56A & L: wt) VH: QVQLVQSGAEVKKPGASVKVSCKASGYTFTSYYMHWVRQAPGQGLEWMGIINPSGASTSYAQKFQGRVTMTRDTSTSTVYMELSSLRSEDTAVYYCAREEYAPFSAEYFQFWGQGTLVTVSS VL: not shown |
| – | – | – | 1.75 A450 | 0.143 A450 | 1.17 A450 | 1.36 A450 | 1.63 A450 | 0.419 A450 | 1.63 A450 | 1.36 A450 | Fab VH1-46_IGHD6-6*01_IGHJ1*01 S102A/S103P/S104F/H111F I51N/N52L/S54T/G56H & L6_IGKJ1*01 (Fab, V domains shown, Fab made in E. coli: VH on CH1 with His6 and Flag tags (Plasmid A), VL on kappa CL (Plasmid C); also called H: APFF NLTH & L: wt) VH: QVQLVQSGAEVKKPGASVKVSCKASGYTFTSYYMHWVRQAPGQGLEWMGINLPTGHSTSYAQKFQGRVTMTRDTSTSTVYMELSSLRSEDTAVYYCAREEYAPFSAEYFQFWGQGTLVTVSS VL: not shown |
| – | – | – | 1.27 A450 | 0.078 A450 | 0.592 A450 | 0.875 A450 | 1.11 A450 | 0.227 A450 | 1.11 A450 | 0.875 A450 | Fab VH1-46_IGHD6-6*01_IGHJ1*01 S102A/S103P/S104F/H111F I51T/N52L/P53A/S54T/G56H & L6_IGKJ1*01 (Fab, V domains shown, Fab made in E. coli: VH on CH1 with His6 and Flag tags (Plasmid A), VL on kappa CL (Plasmid C); also called H: APFF TLATH & L: wt) VH: QVQLVQSGAEVKKPGASVKVSCKASGYTFTSYYMHWVRQAPGQGLEWMGITLATGHSTSYAQKFQGRVTMTRDTSTSTVYMELSSLRSEDTAVYYCAREEYAPFSAEYFQFWGQGTLVTVSS VL: not shown |
| – | – | – | 0.724 A450 | 0.055 A450 | 0.358 A450 | 0.506 A450 | 0.648 A450 | 0.115 A450 | 0.648 A450 | 0.506 A450 | Fab VH1-46_IGHD6-6*01_IGHJ1*01 S102A/S103P/S104F/H111F I51T/N52V & L6_IGKJ1*01 (Fab, V domains shown, Fab made in E. coli: VH on CH1 with His6 and Flag tags (Plasmid A), VL on kappa CL (Plasmid C); also called H: APFF TV & L: wt; APFF I51T/N52V) VH: QVQLVQSGAEVKKPGASVKVSCKASGYTFTSYYMHWVRQAPGQGLEWMGITVPSGGSTSYAQKFQGRVTMTRDTSTSTVYMELSSLRSEDTAVYYCAREEYAPFSAEYFQFWGQGTLVTVSS VL: not shown |
| – | – | – | 2.2 A450 | 0.252 A450 | 1.66 A450 | 1.85 A450 | 2.05 A450 | 0.785 A450 | 2.05 A450 | 1.85 A450 | Fab VH1-46_IGHD6-6*01_IGHJ1*01 S102A/S103P/S104F/H111F I51V/N52L/S54T/G56H & L6_IGKJ1*01 (Fab, V domains shown, Fab made in E. coli: VH on CH1 with His6 and Flag tags (Plasmid A), VL on kappa CL (Plasmid C); also called H: APFF VLTH & L: wt) VH: QVQLVQSGAEVKKPGASVKVSCKASGYTFTSYYMHWVRQAPGQGLEWMGIVLPTGHSTSYAQKFQGRVTMTRDTSTSTVYMELSSLRSEDTAVYYCAREEYAPFSAEYFQFWGQGTLVTVSS VL: not shown |
| – | – | – | 2.48 A450 | 0.653 A450 | 2.15 A450 | 2.35 A450 | 2.4 A450 | 1.37 A450 | 2.4 A450 | 2.35 A450 | Fab VH1-46_IGHD6-6*01_IGHJ1*01 S102A/S103P/S104F/H111F N52L/S54T/G56H & L6_IGKJ1*01 (Fab, V domains shown, Fab made in E. coli: VH on CH1 with His6 and Flag tags (Plasmid A), VL on kappa CL (Plasmid C); also called H: APFF LTH & L: wt) VH: QVQLVQSGAEVKKPGASVKVSCKASGYTFTSYYMHWVRQAPGQGLEWMGIILPTGHSTSYAQKFQGRVTMTRDTSTSTVYMELSSLRSEDTAVYYCAREEYAPFSAEYFQFWGQGTLVTVSS VL: not shown |

Reference: patent US20110318339A1 (FABRUS, published 2011)
